The labels stand for the following.
B1: Clone C variant 1 VNAR-hFc (Fc fusion, not shown: a dimerising Fc or GST)
chain: ARVDQTPQTITKETGESLTINCVLRDSNCALSSTYWYRKKSGSTNEENISKGGRYVETVNSGSKSFSLRINDLTVEDSGTYRCNVAQRPSYNNYFWCDVYGDGTAVTVN
B2: Clone C variant 17 VNAR-hFc (Fc fusion, not shown: a dimerising Fc or GST)
chain: B1 chain with A86V, R88Y, S90Q, N92D
B3: Clone C variant 22 VNAR-hFc (Fc fusion, not shown: a dimerising Fc or GST)
chain: B1 chain with A86V, R88Y, Y91N
B4: Clone C variant 2 VNAR-hFc (Fc fusion, not shown: a dimerising Fc or GST)
chain: B1 chain with A86L
B5: Clone C variant 6 VNAR-hFc (Fc fusion, not shown: a dimerising Fc or GST)
chain: B1 chain with A86V, R88W, Y91I, N92Q, N93S, Y94P
B6: Clone C variant 8 VNAR-hFc (Fc fusion, not shown: a dimerising Fc or GST)
chain: B1 chain with A86V, R88W
B7: Clone C variant 10 VNAR-hFc (Fc fusion, not shown: a dimerising Fc or GST)
chain: B1 chain with A86V, R88Y, S90F, Y91L, N92E
B8: Clone C variant 14 VNAR-hFc (Fc fusion, not shown: a dimerising Fc or GST)
chain: B1 chain with A86V, R88Y, S90Q, Y91Q, N92D, N93R, Y94P
B9: Clone C variant 15 VNAR-hFc (Fc fusion, not shown: a dimerising Fc or GST)
chain: B1 chain with A86V, R88Y, S90Q, Y91Q, N92P
B10: Clone C variant 4 VNAR-hFc (Fc fusion, not shown: a dimerising Fc or GST)
chain: B1 chain with A86V
B11: Clone C variant 12 VNAR-hFc (Fc fusion, not shown: a dimerising Fc or GST)
chain: B1 chain with A86V, R88Y, S90Q, Y91Q, N92D, Y94P
B12: Clone C variant 19 VNAR-hFc (Fc fusion, not shown: a dimerising Fc or GST)
chain: B1 chain with A86V, R88Y, S90R, Y91T
B13: Clone C variant 9 VNAR-hFc (Fc fusion, not shown: a dimerising Fc or GST)
chain: B1 chain with A86V, R88W, S90T, Y91L, N92S, N93S, Y94P
B14: Clone C variant 23 VNAR-hFc (Fc fusion, not shown: a dimerising Fc or GST)
chain: B1 chain with A86V, R88Y, Y91Q, N92Q
B15: Clone C variant 25 VNAR-hFc (Fc fusion, not shown: a dimerising Fc or GST)
chain: B1 chain with A86V, R88Y, N92D, Y94P
B16: Clone C variant 20 VNAR-hFc (Fc fusion, not shown: a dimerising Fc or GST)
chain: B1 chain with A86V, R88Y, Y91H
B17: Clone C variant 5 VNAR-hFc (Fc fusion, not shown: a dimerising Fc or GST)
chain: B1 chain with A86V, R88S
B18: Clone C variant 3 VNAR-hFc (Fc fusion, not shown: a dimerising Fc or GST)
chain: B1 chain with A86V, R88H
B19: Clone C variant 21 VNAR-hFc (Fc fusion, not shown: a dimerising Fc or GST)
chain: B1 chain with A86V, R88Y, Y91I, N92F
B20: Clone C variant 7 VNAR-hFc (Fc fusion, not shown: a dimerising Fc or GST)
chain: B1 chain with A86V, R88W, Y91L, N92S, N93S, Y94P
B21: Clone C variant 24 VNAR-hFc (Fc fusion, not shown: a dimerising Fc or GST)
chain: B1 chain with A86V, R88Y, Y91W, N92D
B22: Clone C variant 11 VNAR-hFc (Fc fusion, not shown: a dimerising Fc or GST)
chain: B1 chain with A86V, R88Y, S90H
B23: Clone H variant 2 VNAR-hFc (Fc fusion, not shown: a dimerising Fc or GST)
chain: ARVDQTPQTITKETGESLTINCVLRDSNCELSSTYWYRKKSGSTNEESISKGGRYVETVNSGSKSFSLRINDLVVEDSGTYRCNVQQFPSSWPFRYWCDVYGGGTAVTVNA
B24: Clone H variant 3 VNAR-hFc (Fc fusion, not shown: a dimerising Fc or GST)
chain: B23 chain with S91W, W92G, P93N, F94G
B25: Clone H variant 7 VNAR-hFc (Fc fusion, not shown: a dimerising Fc or GST)
chain: B23 chain with S90T, S91R, W92T, P93N, F94G
B26: Clone H variant 5 VNAR-hFc (Fc fusion, not shown: a dimerising Fc or GST)
chain: B23 chain with S90N, S91R, P93N, F94G
B27: Clone H variant 6 VNAR-hFc (Fc fusion, not shown: a dimerising Fc or GST)
chain: B23 chain with S91R, W92N, P93N, F94G

Changes are numbered by the printed parent chain.

The target of one assay is T1, recombinant human TfR-1, His-tagged (Sino Biological 11020-H07H) (human, UniProt P02786 89-760).
T1 construct: bought; His-tagged; also called hTfR1; hTfR-1
T1 sequence (P02786 89-760 limits assumed): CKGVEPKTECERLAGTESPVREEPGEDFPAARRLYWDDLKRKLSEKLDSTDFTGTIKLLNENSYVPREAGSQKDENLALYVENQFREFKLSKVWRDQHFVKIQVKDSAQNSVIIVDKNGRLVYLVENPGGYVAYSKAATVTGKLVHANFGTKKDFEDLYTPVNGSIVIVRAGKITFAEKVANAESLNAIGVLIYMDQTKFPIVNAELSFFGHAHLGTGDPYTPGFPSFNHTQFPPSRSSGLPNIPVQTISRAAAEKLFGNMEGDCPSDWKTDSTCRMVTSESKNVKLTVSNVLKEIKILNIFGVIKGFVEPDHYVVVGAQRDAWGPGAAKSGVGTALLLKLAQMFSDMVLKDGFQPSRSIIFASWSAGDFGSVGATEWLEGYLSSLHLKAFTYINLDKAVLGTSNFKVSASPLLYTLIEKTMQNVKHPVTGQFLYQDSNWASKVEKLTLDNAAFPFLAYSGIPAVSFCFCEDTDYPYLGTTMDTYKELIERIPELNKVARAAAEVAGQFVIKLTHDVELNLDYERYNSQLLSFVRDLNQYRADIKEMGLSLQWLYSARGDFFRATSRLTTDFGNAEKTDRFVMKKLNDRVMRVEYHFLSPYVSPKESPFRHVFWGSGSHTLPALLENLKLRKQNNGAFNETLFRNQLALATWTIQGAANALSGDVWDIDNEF
Kind of assay: SPR, His-captured TfR1. The method, then: (§1) Detailed binding kinetic analyses were performed to gain a better understanding of the relationship between affinity and brain penetration of the Clone C variants. Biacore surface plasmon resonance (SPR) analysis using immobilised mouse and human TfR-1 was performed for selected clones (Table 2).
(§2) Binding kinetics of VNAR-Fcs was determined by surface plasmon resonance (Biacore T200, GE Healthcare). CMS chips were coated with anti-His antibodies (His Capture Kit, GE Healthcare) as recommended by the manufacturer and human or mouse his-tagged TfR1 (SinoBiological) at 10 ug/mL in HBS-EP+ (GE Healthcare) was captured at flow rate 10 ul/min (contact time 120 s). […] A flow cell without TfR1 captured served as a reference. Sensorgrams were fitted and kinetic constants were determined using Biacore T200 Evaluation software. Chips were regenerated in 10 mM Glycine-HCl, pH 1.5 (contact time: 120 s at flow rate 30 ul/min).
As for B1, the Kd was 2.79 nM, the koff was 0.000322 s⁻¹ and the kon came to 115000 M⁻¹ s⁻¹.

For B2, the Kd came out at 0.439 nM, the off-rate constant (koff) stood at 8.13e-05 s⁻¹ and the kon came out at 185000 M⁻¹ s⁻¹.

As for B3, the Kd was determined as 8.44 nM, the koff was 0.000627 s⁻¹ and the on-rate (kon) was found to be 74200 M⁻¹ s⁻¹.

Consider B4, for which the Kd came out at 49.4 nM, the koff was determined as 0.000677 s⁻¹ and the kon amounted to 13700 M⁻¹ s⁻¹.

Turning to B5, the dissociation constant (Kd) came to 19.3 nM, the koff turned out to be 0.000955 s⁻¹ and the kon came out at 49500 M⁻¹ s⁻¹.

In the case of B6, the Kd came to 4.5 nM, the off-rate constant (koff) was 0.000519 s⁻¹ and the kon was determined as 115000 M⁻¹ s⁻¹.

For B7, the Kd is 2.79 nM, the koff was 0.000389 s⁻¹ and the kon worked out at 140000 M⁻¹ s⁻¹.

Turning to B8, the Kd was 6.34 nM, the koff came to 0.000156 s⁻¹ and the kon was found to be 24500 M⁻¹ s⁻¹.

Regarding B9, the dissociation constant (Kd) is 0.248 nM, the koff is 5.78e-05 s⁻¹ and the kon was 233000 M⁻¹ s⁻¹.

In the case of B10, the Kd was determined as 9.21 nM, the koff was found to be 0.000325 s⁻¹ and the kon stood at 35200 M⁻¹ s⁻¹.

Turning to B11, the equilibrium dissociation constant (Kd) is 0.699 nM, the koff stood at 0.000142 s⁻¹ and the kon turned out to be 203000 M⁻¹ s⁻¹.

B12: the Kd came out at 0.454 nM, the koff is 0.000109 s⁻¹ and the kon came out at 239000 M⁻¹ s⁻¹.

For the molecule B13, the Kd was determined as 26.5 nM, the dissociation rate constant (koff) is 0.000754 s⁻¹ and the on-rate (kon) turned out to be 28500 M⁻¹ s⁻¹.

As for B14, the Kd was 1.36 nM, the koff turned out to be 0.000432 s⁻¹ and the kon turned out to be 317000 M⁻¹ s⁻¹.

B15: the Kd worked out at 17.1 nM, the koff came to 0.000569 s⁻¹ and the kon was 33300 M⁻¹ s⁻¹.

As for B16, the Kd was found to be 5.61 nM, the koff was found to be 0.000291 s⁻¹ and the kon amounted to 51900 M⁻¹ s⁻¹.

Take B17: the Kd is 0.733 nM, the koff was determined as 0.000302 s⁻¹ and the kon came to 411000 M⁻¹ s⁻¹.

As for B18, the Kd was determined as 0.311 nM, the koff was 0.000119 s⁻¹ and the kon came out at 381000 M⁻¹ s⁻¹.

In the case of B19, the Kd was found to be 4.58 nM, the dissociation rate constant (koff) turned out to be 0.000437 s⁻¹ and the kon stood at 95500 M⁻¹ s⁻¹.

For the molecule B20, the Kd was determined as 0.636 nM, the koff was determined as 7.02e-05 s⁻¹ and the kon came to 110000 M⁻¹ s⁻¹.

Turning to B21, the Kd was found to be 2.19 nM, the koff amounted to 0.000194 s⁻¹ and the kon amounted to 88800 M⁻¹ s⁻¹.

With B22, the Kd is 0.472 nM, the koff worked out at 9.01e-05 s⁻¹ and the kon came to 191000 M⁻¹ s⁻¹.

In the next assay the target is T2, recombinant mouse TfR-1, His-tagged (Sino Biological 50741-M07H) (mouse, UniProt Q62351 89-763).
T2 construct: bought; His-tagged; also called mTfR1; mTfR-1
T2 sequence (Q62351 89-763 limits assumed, stated change not applied): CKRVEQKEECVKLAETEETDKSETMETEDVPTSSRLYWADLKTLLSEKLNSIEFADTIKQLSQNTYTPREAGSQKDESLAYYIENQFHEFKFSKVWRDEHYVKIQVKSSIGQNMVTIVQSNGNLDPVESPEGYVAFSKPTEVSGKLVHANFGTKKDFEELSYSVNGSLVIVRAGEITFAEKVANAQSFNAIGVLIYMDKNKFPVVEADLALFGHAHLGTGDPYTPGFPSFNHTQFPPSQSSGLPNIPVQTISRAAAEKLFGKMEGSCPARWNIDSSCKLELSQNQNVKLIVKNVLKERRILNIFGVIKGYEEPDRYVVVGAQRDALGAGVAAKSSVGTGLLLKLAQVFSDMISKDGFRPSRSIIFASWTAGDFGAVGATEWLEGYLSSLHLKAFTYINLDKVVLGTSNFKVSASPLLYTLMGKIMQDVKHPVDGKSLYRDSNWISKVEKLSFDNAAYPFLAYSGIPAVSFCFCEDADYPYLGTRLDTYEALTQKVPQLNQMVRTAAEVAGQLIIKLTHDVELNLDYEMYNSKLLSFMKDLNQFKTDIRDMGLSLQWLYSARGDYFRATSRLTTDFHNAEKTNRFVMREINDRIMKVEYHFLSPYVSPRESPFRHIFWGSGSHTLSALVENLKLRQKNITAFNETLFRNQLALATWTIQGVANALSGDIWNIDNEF
Kind of assay: SPR, His-captured TfR1. The method, then:
as §1, §2
Turning to B1, the dissociation constant Kd was 1.45 nM, the koff is 0.000154 s⁻¹ and the on-rate (kon) came out at 106000 M⁻¹ s⁻¹.

Consider B2, for which the Kd amounted to 0.207 nM, the koff is 3.72e-05 s⁻¹ and the kon was 180000 M⁻¹ s⁻¹.

As for B4, the dissociation constant Kd was 9.65 nM, the koff stood at 0.000144 s⁻¹ and the kon is 14900 M⁻¹ s⁻¹.

B6: the Kd came to 6.81 nM, the dissociation rate constant (koff) amounted to 0.000432 s⁻¹ and the kon worked out at 63500 M⁻¹ s⁻¹.

For B8, the Kd is 6.69 nM, the koff is 0.000133 s⁻¹ and the kon worked out at 19900 M⁻¹ s⁻¹.

For the molecule B9, the Kd turned out to be 0.0902 nM, the koff worked out at 2.52e-05 s⁻¹ and the kon came out at 279000 M⁻¹ s⁻¹.

As for B10, the dissociation constant Kd was 2.34 nM, the koff stood at 8.76e-05 s⁻¹ and the association rate constant (kon) turned out to be 37400 M⁻¹ s⁻¹.

For B11, the Kd is 0.715 nM, the off-rate (koff) came out at 0.000128 s⁻¹ and the kon stood at 179000 M⁻¹ s⁻¹.

B12: the Kd was 1.33 nM, the koff turned out to be 0.000287 s⁻¹ and the kon is 216000 M⁻¹ s⁻¹.

As for B13, the Kd was 2.43 nM, the koff turned out to be 9.32e-05 s⁻¹ and the kon amounted to 38300 M⁻¹ s⁻¹.

As for B16, the Kd was 2.06 nM, the koff came to 0.000103 s⁻¹ and the kon came to 50100 M⁻¹ s⁻¹.

Regarding B17, the dissociation constant Kd turned out to be 0.486 nM, the koff stood at 0.000135 s⁻¹ and the kon worked out at 278000 M⁻¹ s⁻¹.

With B18, the Kd was 0.72 nM, the dissociation rate constant (koff) came to 0.000256 s⁻¹ and the on-rate (kon) worked out at 355000 M⁻¹ s⁻¹.

In the case of B20, the Kd worked out at 0.286 nM, the off-rate (koff) turned out to be 3.39e-05 s⁻¹ and the association rate constant (kon) is 119000 M⁻¹ s⁻¹.

Consider B22, for which the Kd came to 0.291 nM, the koff was 5.17e-05 s⁻¹ and the kon came to 177000 M⁻¹ s⁻¹.

In a further assay the target is T1, recombinant human TfR-1, His-tagged …. Kind of assay: SPR, His-captured TfR1. This is another data set of the same source. The method, then:
(§3) Detailed binding kinetic analyses were performed to gain a better understanding of the relationship between affinity and brain penetration of the Clone H variants. Biacore surface plasmon resonance (SPR) analysis using immobilized mouse and human TfR-1 was performed for the clones (Table 5).
as §2
Turning to B23, the equilibrium dissociation constant (Kd) is 3.77 nM, the koff is 0.000403 s⁻¹ and the kon was 107000 M⁻¹ s⁻¹.

As to B24, the Kd was found to be 4.71 nM, the koff was 0.000254 s⁻¹ and the kon worked out at 53900 M⁻¹ s⁻¹.

A further assay has as its target T2, recombinant mouse TfR-1, His-tagged …. Kind of assay: SPR, His-captured TfR1. The source holds these as a separate data set. The method, then:
as §3, §2
For the molecule B23, the Kd turned out to be 25.2 nM, the koff was 0.000482 s⁻¹ and the kon was found to be 19100 M⁻¹ s⁻¹.

In the case of B25, the dissociation constant Kd stood at 15.6 nM, the koff was 0.000399 s⁻¹ and the kon is 25600 M⁻¹ s⁻¹.

For B24, the Kd is 5.59 nM, the koff turned out to be 0.000273 s⁻¹ and the kon came out at 48900 M⁻¹ s⁻¹.

Consider B26, for which the Kd turned out to be 11 nM, the koff was found to be 0.000369 s⁻¹ and the kon was 33700 M⁻¹ s⁻¹.

Regarding B27, the Kd stood at 16.5 nM, the koff turned out to be 0.000417 s⁻¹ and the kon came to 25300 M⁻¹ s⁻¹.

The values are drawn from US20210403591A1 (OSSIANIX, published 2021).
